Reference: patent US20100323957A1, “NOVEL ASSAY FOR INHIBITORS OF EGFR” (THE REGENTS OF THE UNIVERSITY OF CALIFORNIA THE OFFICE OF …, priority 2007, published 2010)
Positions count from the first letter of the chain named. Numbers in names are those of the source.

B1: MIG6(M346A): full-length MIG6 with M346A mutation in segment 1, co-expressed in cells (protein)
chain: MSIAGVAAQEIRVPLKTGFLHNGRAMGNMRKTYWSSRSEFKNNFLNIDPITMAYSLNSSAQERLIPLGHASKSAPMNGHCFAENGPSQKSSLPPLLIPPSENLGPHEEDQVVCGFKKLTVNGVCASTPPLTPIKNSPSLFPCAPLCERGSRPLPPLPISEALSLDDTDCEVEFLTSSDTDFLLEDSTLSDFKYDVPGRRSFRGCGQINYAYFDTPAVSAADLSYVSDQNGGVPDPNPPPPQTHRRLRRSHSGPAGSFNKPAIRISNCCIHRASPNSDEDKPEVPPRVPIPPRPVKPDYRRWSAEVTSSTYSDEDRPPKVPPREPLSPSNSRTPSPKSLPSYLNGVAPPTQSFAPDPKYVSSKALQRQNSEGSASKVPCILPIIENGKKVSSTHYYLLPERPPYLDKYEKFFREAEETNGGAQIQPLPADCGISSATEKPDSKTKMDLGGHVKRKHLSYVVSP
modifications: left off: small tags and cut ends
notes: full-length MIG6 with M346A mutation in segment 1, co-expressed in cells
B2: MIG6(Y358A): full-length MIG6 with Y358A mutation in segment 1, co-expressed in cells (protein)
chain: B1 chain with A346M, Y358A
modifications: left off: small tags and cut ends
notes: full-length MIG6 with Y358A mutation in segment 1, co-expressed in cells
B3: MIG6(F352A): full-length MIG6 with F352A mutation in segment 1, co-expressed in cells (protein)
chain: B1 chain with A346M, F352A
modifications: left off: small tags and cut ends
notes: full-length MIG6 with F352A mutation in segment 1, co-expressed in cells
B4: MIG6(segments 1-2): longer MIG6 peptide, residues 336-412, expressed as Trp DLE fusion; M346 mutated to leucine (protein)
peptide: KSLPSYLNGVLPPTQSFAPDPKYVSSKALQRQNSEGSASKVPCILPIIENGKKVSSTHYYLLPERPPYLDKYEKFFR
B5: MIG6(segments 1-2) Y358A: MIG6 residues 336-412 bearing a mutation within segment 1 (Y358A) (protein)
peptide: B4 peptide with Y23A

Experiments:
[1] = target: T1, full-length EGFR (Homo sapiens, UniProt P00533); assay: Cell-based assay of EGFR autophosphorylation, Cos-7 cells co-transfected with EGFR and MIG6; conditions: co-expression with EGFR, EGF 50 ng/ml, western blot
T1 construct: Cos-7 cells co-transfected with constructs containing full-length EGFR and MIG6; expressed in transfected cells; host or cells: Cos-7
Description: The wild-type and mutant forms of the EGFR kinase domain were expressed and purified using methods known in the art and described in Zhang et al., (2006). The 60-residue MIG6 peptide was expressed in bacteria as a glutathione S-transferase (GST)-fusion protein, purified and treated with the TEV protease to remove the GST-moiety. The wild-type and Y358A mutant MIG6(segments 1-2) peptides were fused to a Trp DLE leader peptide and expressed as inclusion bodies and purified as described. All other MIG6 peptides were produced using solid phase synthesis. […] The binding affinities between the kinase domain and fluorescein-labeled MIG6 peptides were measured by monitoring the change of fluorescence anisotropy during the titration and fitting the data to a single-site binding model. Kinase assays in solution and on vesicle were performed using methods known in the art and described herein. Cell-based inhibition assays were performed using Cos-7 cells co-transfected with constructs containing full-length EGFR and MIG6.
For cell-based assays, Cos-7 cells were co-transfected using Fugene 6 (Roche) with the DNA encoding the N-terminal Flag-tagged EGFR in pcDNA3.1 constructs and the wild-type or mutants of the MIG6 genes with a C-terminal Myc tag (also in pcDNA3.1). Cells were cultured for 36 h after transfection and serum-starved for 12 h. Cells were treated with EGF (50 ng ml^−1) for ˜5 min at 37° C., lysed and subjected to western blot analyses. The levels of total EGFR, EGFR autophosphorylation and MIG6 were probed using the anti-EGFR antibody SC03 (Santa Cruz), anti-phosphotyrosine antibody 4G10 (Upstate) and an anti-Myc antibody (Cell Signalling), respectively.

[2] = target: T2, EGFR kinase domain L834R mutant (Homo sapiens, UniProt P00533, L858R); assay: Kinase assay in solution, L834R mutant kinase domain; assay type: biochemical; conditions: for IC50: L834R at 200 nM, MnCl2 10 mM, read-out: IC50 for inhibition of L834R mutant kinase domain
T2 construct: DNA encoding residues 672-998 of human EGFR was cloned into pFAST BAC HT; made in house; host or cells: Sf9 insect cells (baculovirus)
Protocol: To test the role of segment 2, we produced a longer peptide (residues 336-412, MIG6(segments 1-2)), and analyzed its effect on a variant of the EGFR kinase domain that contains a mutation (L834R) that renders it constitutively active in the absence of concentration on vesicles. MIG6(segments 1-2) inhibits this mutant kinase domain with an IC50 value of ˜200 nM (FIG. 25a). MIG6(segments 1-2) bearing a mutation within segment 1 (Y358A) inhibited L834R much less efficiently (IC50˜5 μM).
(§1) Kinase assays were performed using methods known in the art and described herein. The substrate peptide was kept at 1 mM in all the experiments. The reported rates are the initial velocities normalized by the kinase concentrations. The wild-type kinase concentrations in the vesicle-based and solution-based assays were […] respectively.
(§2) A continuous enzyme-coupled kinase assay was performed to measure the kinase activity of the proteins as described in Barker et al., ((1995) Biochemistry, Vol. 34(54): 14843-51), with modifications, as described herein. The ATP concentration was kept to 0.5 mM.
(§3) The buffer used contained 10 mM MgCl2, 20 mM Tris, and pH 7.5. […] The substrate peptide was derived from the region spanning Y1173 in EGFR ([…]). All proteins used in this assay contained the N-terminal (His)6 tag unless otherwise noted.

[3] = target: T3, wild-type EGFR kinase domain in solution (Homo sapiens, UniProt P00533); assay: Kinase assay in solution, wild-type kinase domain (basal activity); assay type: biochemical; conditions: result in words
T3 construct: DNA encoding residues 672-998 of human EGFR was cloned into pFAST BAC HT; made in house; host or cells: Sf9 insect cells (baculovirus)
Protocol: as §1, §2, §3
The protein concentrations of the EGFR kinase domain used in the assay ranged from 3.5 to 14 μM. The total concentration of the DOGS-NTA-Ni in the bulk solution was kept to 12.5 μM in all assays with DOG-NTA-Ni-containing vesicles. For assays of the kinase domain attached to vesicles, the protein and vesicles were preincubated at 4° C. for ˜5 min.

Molecule | EGF-induced autophosphorylation of EGFR [1] | IC50 [2] [nM] | inhibition of L834R mutant kinase domain ([2]; result in words) | inhibition of basal activity of wild-type kinase domain in solution [3]
B1 | abolishes this effect |  |  | 
B2 | abolishes this effect |  |  | 
B3 | abolishes this effect |  |  | 
B4 |  | ~200 | much more strongly | much less potent
B5 |  | ~5000 |  | does not show any inhibition
